Experimental data published in US20210290733A1, “INJECTABLE MICRONIZED HUMAN INSULIN” (ARVEN ILAC SANAYI VE TICARET ANONIM SIRKETI, priority 2018, published 2021).

Columns and labels:
[1] = Particle size measurement of human insulin before and after micronization; assay type: physicochemical
Description: According to one embodiment of the present invention, after micronization, the micronized human insulin has a d(0.1) particle size which is less than 5 μm or less than 3 μm or less than 2 μm.
According to one embodiment of the present invention, the micronized human insulin particles were prepared by using supercritical fluid process.

[2] = Bioactivity test (USP limit, USP 121 Insulin Assays); conditions: for Bioactivity: USP limit min. 15 IU/mg
Description: According to one embodiment of the present invention, the composition is prepared by based on USP 121 formula (The United States Pharmacopeial Convention 2015, [121] Insulin Assays). This is important in order to minimize the risk of adverse effects, both local and systemic. It is important that human insulin in the composition is used without extra excipients because, its amino acid sequence and biological activity are the same as those of the human body and are safe and have no toxic or side effects.

Substance: human insulin: recombinant human insulin, unmodified primary structure, before micronization
- d(0.1) particle size ([1]; Before Micronization): 1.96 μm
- d(0.5) particle size ([1]; Before Micronization): 13.24 μm
- d(0.9) particle size ([1]; Before Micronization): 25.12 μm
- Bioactivity ([2]; Before Micronization): 16.02 IU/mg

Substance: micronized human insulin: recombinant, unmodified human insulin with particle size reduced by supercritical fluid (SAS) process
- d(0.1) particle size ([1]; After Micronization): 1.654 μm
- d(0.5) particle size ([1]; After Micronization): 5.273 μm
- d(0.9) particle size ([1]; After Micronization): 12.54 μm
- Bioactivity ([2]; After Micronization): 34.72 IU/mg
- Protein activity at the end of the micronization process (versus before) ([2]; without any change in protein structure): protein activity increased
